Test results taken from patent publication US20180305421A1 (SHIRE HUMAN GENETIC THERAPIES, published 2018).

B1: FS315 (R&D Systems) (other)
chain: GNCWLRQAKNGRCQVLYKTELSKEECCSTGRLSTSWTEEDVNDNTLFKWMIFNGGAPNCIPCKETCENVDCGPGKKCRMNKKNKPRCVCAPDCSNITWKGPVCGLDGKTYRNECALLKARCKEQPELEVQYQGRCKKTCRDVFCPGSSTCVVDQTNNAYCVTCNRICPEPASSEQYLCGNDGVTYSSACHLRKATCLLGRSIGLAYEGKCIKAKSCEDIQCTGGKKCLWDFKVGRGRCSLCDELCPDSKSDEPVCASDNATYASECAMKEAACSSGVLLEVKHSGSCNSISEDTEEEEEDEDQDYSFPISSILEW
B2: follistatin-Fc human chimera FS315-hFc (Sino Biological Inc. Catalog Number 10685-H02H) (Fc fusion)
chain: GNCWLRQAKNGRCQVLYKTELSKEECCSTGRLSTSWTEEDVNDNTLFKWMIFNGGAPNCIPCKETCENVDCGPGKKCRMNKKNKPRCVCAPDCSNITWKGPVCGLDGKTYRNECALLKARCKEQPELEVQYQGRCKKTCRDVFCPGSSTCVVDQTNNAYCVTCNRICPEPASSEQYLCGNDGVTYSSACHLRKATCLLGRSIGLAYEGKCIKAKSCEDIQCTGGKKCLWDFKVGRGRCSLCDELCPDSKSDEPVCASDNATYASECAMKEAACSSGVLLEVKHSGSCNSISEDTEEEEEDEDQDYSFPISSILEWALEVLFQGP
notes: Bought fusion protein; also called Sino Biological FS315-hFc; not shown: human Fc of the bought product
B3: sActRIIB-hFc (Fc fusion, UniProt Q13705 25-134, looked up)
chain: ETRECIYYNANWELERTNQSGLERCEGEQDKRLHCYASWRNSSGTIELVKKGCWLDDFNCYDRQECVATEENPQVYFCCCEGNFCNERFTHLPEAGGPEVTYEPPPTAPT
notes: Control protein in the Biacore assay; also called sActRTIB-hFc; sActRIIB-Fc; not shown: human Fc
B4: BMP-2 (ligand, UniProt P12643 283-396, looked up)
chain: QAKHKQRKRLKSSCKRHPLYVDFSDVGWNDWIVAPPGYHAFYCHGECPFPLADHLNSTNHAIVQTLVNSVNSKIPKACCVPTELSAISMLYLDENEKVVLKNYQDMVVEGCGCR
B5: BMP-10 (ligand, UniProt O95393 317-424, looked up)
chain: NAKGNYCKRTPLYIDFKEIGWDSWIIAPPGYEAYECRGVCNYPLAEHLTPTKHAIIQALVHLKNSQKASKACCVPTKLEPISILYLDKGVVTYKFKYEGMAVSECGCR
B6: GDF-11 (ligand, UniProt O95390 299-407, looked up)
chain: NLGLDCDEHSSESRCCRYPLTVDFEAFGWDWIIAPKRYKANYCSGQCEYMFMQKYPHTHLVQQANPRGSAGPCCTPTKMSPINMLYFNDKQQIIYGKIPGMVVDRCGCS
B7: BMP-4 (ligand, UniProt P12644 293-408, looked up)
chain: SPKHHSQRARKKNKNCRRHSLYVDFSDVGWNDWIVAPPGYQAFYCHGDCPFPLADHLNSTNHAIVQTLVNSVNSSIPKACCVPTELSAISMLYLDEYDKVVLKNYQEMVVEGCGCR
B8: activin (ligand, UniProt P08476 311-426, looked up)
chain: GLECDGKVNICCKKQFFVSFKDIGWNDWIIAPSGYHANYCEGECPSHIAGTSGSSLSFHSTVINHYRMRGHSPFANLKSCCVPTKLRPMSMLYYDDGQNIIKKDIQNMIVEECGCS
notes: also called activin A
B9: BMP-6 (ligand, UniProt P22004 382-513, looked up)
chain: QQSRNRSTQSQDVARVSSASDYNSSELKTACRKHELYVSFQDLGWQDWIIAPKGYAANYCDGECSFPLNAHMNATNHAIVQTLVHLMNPEYVPKPCCAPTKLNAISVLYFDDNSNVILKKYRNMVVRACGCH
B10: BMP-7 (ligand, UniProt P18075 293-431, looked up)
chain: STGSKQRSQNRSKTPKNQEALRMANVAENSSSDQRQACKKHELYVSFRDLGWQDWIIAPEGYAAYYCEGECAFPLNSYMNATNHAIVQTLVHFINPETVPKPCCAPTQLNAISVLYFDDSSNVILKKYRNMVVRACGCH
B11: BMP-9 (ligand, UniProt Q9UK05 320-429, looked up)
chain: SAGAGSHCQKTSLRVNFEDIGWDSWIIAPKEYEAYECKGGCFFPLADDVTPTKHAIVQTLVHLKFPTKVGKACCVPTKLSPISVLYKDDMGVPTLKYHYEGMSVAECGCR

Assays:
[1] = biological target: T1, myostatin (UniProt O14793 267-375); test: cell-based or functional assay
T1 sequence (looked up): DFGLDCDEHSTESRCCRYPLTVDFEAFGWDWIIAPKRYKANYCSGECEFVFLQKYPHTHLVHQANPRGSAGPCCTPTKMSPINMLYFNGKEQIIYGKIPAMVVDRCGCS

[2] = biological target: B8; test: cell-based or functional assay
[3] = biological target: T1, myostatin; test: cell-based or functional assay; remark: listed apart in the source
[4] = biological target: T1, myostatin; test: Biacore SPR (Table 3)
From the text: (§1) Specifically, commercially available follistatins (FS315, manufactured by R&D Systems and follistatin-Fc human chimera FS315-hFc, manufactured by Sino Biological), and FS315-GAG3-mFc fusion proteins were used to assess binding affinity and kinetics to activin, myostatin, and BMPs using Biacore assays. Briefly, FS315 was immobilized onto a CM5 chip, and follistatin-Fc fusion proteins were captured using human or mouse antibody capture kits (GE Healthcare). Post amine-coupling, a concentration series of activin, myostatin, or BMPs (e.g., BMP-2, -4, -6, -7, -9, -10, and GDF-1) was added as soluble analyte at 25° C. sActRTIB-hFc was used as a control. Binding affinities (Kd) and kinetics were determined using standard methods.

[5] = biological target: B11; test: cell-based or functional assay
[6] = biological target: B4; test: Biacore SPR, 25 C; Fc fusion captured with antibody capture kit, ligand as soluble analyte
From the text: as §1

[7] = biological target: B11; test: Biacore SPR, 25 C; Fc fusion captured with human antibody capture kit, ligand as soluble analyte
From the text: as §1

[8] = biological target: B8; test: as above
From the text: as §1

[9] = biological target: B7; test: as above
From the text: as §1

[10] = biological target: B9; test: as above
From the text: as §1

[11] = biological target: B10; test: as above
From the text: as §1

[12] = biological target: B1; test: Biacore SPR, 25 C; FS315 immobilized on CM5 chip, ligand as soluble analyte
From the text: as §1

[13] = biological target: B2; test: Biacore SPR, 25 C; Fc fusion captured with antibody capture kit, ligand as soluble analyte
From the text: as §1

[14] = biological target: B2; test: Biacore SPR, 25 C; Fc fusion captured with human antibody capture kit, ligand as soluble analyte
From the text: as §1

[15] = biological target: B3; test: as above
From the text: as §1

[16] = biological target: B1; test: Biacore SPR, 25 C; FS315 immobilized on CM5 chip, ligand as soluble analyte; Table 3 cell for this pair: fitted KD, FS315 immobilized on CM5, BMP-10 as analyte, 25 C
From the text: as §1

[17] = biological target: B1; test: Biacore SPR, 25 C; FS315 immobilized on CM5 chip, ligand as soluble analyte; FS315 (R&D Systems, no Fc) amine-coupled to CM5 chip; activin as soluble analyte; 25 C
From the text: as §1

B1 was tested, and the “IC50, CAGA-luciferase reporter assay for Smad2/3 signaling (1.2 nM myostatin)” value [1] was 0.45 nM, the “IC50, CAGA-luciferase reporter assay for Smad2/3 signaling (1.2 nM activin)” value [2] was 0.4 nM and the “IC50 (read off the curve); CAGA-luciferase reporter in HEK293 cells, myostatin (1.2 nM)-induced Smad2/3 signalling” value [3] was roughly 0.2 nM.

In the case of B2, the “fold increase of binding affinity against follistatin (FS315)” value [4] is reported as no less than 10 fold, the “IC50, CAGA-luciferase reporter assay for Smad2/3 signaling (1.2 nM myostatin)” value [1] is reported as 2.99 nM and the “IC50, CAGA-luciferase reporter assay for Smad2/3 signaling (1.2 nM activin)” value [2] is reported as 2.9 nM.

In the case of B3, the “IC50 (read off the curve); BRE-luciferase reporter in HEK293 cells, BMP-9-induced Smad1/5/8 signalling” value [5] is reported as roughly 20 nM, the binding result [6] is reported as “no binding” and the Kd [7] is reported as 0.054 nM. For the same binder, the Kd [8] was 0.07 nM, the Kd [9] was 130 nM and the Kd [10] was 0.057 nM. It also gave a Kd [11] of 1.1 nM.

With B4 the Kd [12] was 440 nM and the binding result [13] was “no binding”.

In the case of B5, the Kd [14] is reported as 150 nM, the Kd [15] is reported as 0.01 nM and the Kd [16] is reported as 100 nM.

B6 showed a Kd [14] of 0.82 nM and a Kd [15] of 0.34 nM.

Work on B7 yielded a Kd [12] of 14 nM.

In the case of B8, the Kd [14] is reported as 0.19 nM and the Kd [17] is reported as 0.73 nM.

With B9 the Kd [12] was 0.36 nM and the Kd [14] was 0.9 nM.

In the case of B10, the Kd [12] is reported as 38 nM.

B11: no binding [12]; no binding [13].
